Data from the supplement of paper PMC10724198.
± gives the standard deviation of the averaged measurements.

The sequences below were run on Saccharomyces cerevisiae (assay: protein stability index of tFT-peptide fusion (C-terminal peptide) (PSI (0-1 scale)); higher = more stable (slower turnover)). Conditions: genetic background: wild type; temperature: 30 C.
Description: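 MPS profiling in S. cerevisiae of the yeast C-terminome library: the last 12 aa of each annotated ORF are fused to the C-terminus of a sfGFP-mCherry timer, after a GGGS linker. Cells are FACS-sorted into 8 mCherry/sfGFP bins and deep-sequenced. PSI runs from 0 (unstable) to 1 (stable); wild type and das1Δ backgrounds, two technical replicates each.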
With LVEILDCEIRTL [MIC60 C-terminal 12 aa] the protein stability index was 0.6707 ± 0.0035. With LVFALLTCFEDG [YDR209C C-terminal 12 aa] the protein stability index was 0.505 ± 0.014. LVGGGIKKSGKK [TMA7 C-terminal 12 aa] was tested, and the protein stability index was 0.736 ± 0.011. Sequence LVHFLGLILNNF [YNL171C C-terminal 12 aa] has a protein stability index of 0.624 ± 0.014. LVHIKMENGIVS [IZH2 C-terminal 12 aa] showed a protein stability index of 0.693 ± 0.019. With LYGPSKTRKFFD [VMA4 C-terminal 12 aa] the protein stability index was 0.692 ± 0.011. LYGQRFLATGFQ [AIM19 C-terminal 12 aa] showed a protein stability index of 0.705 ± 0.024. Work on LYLLLARVFEIW [SNF11 C-terminal 12 aa] yielded a protein stability index of 0.5614 ± 0.0025. In the case of LYQCRMPCLYSI [YGL193C C-terminal 12 aa], the protein stability index is reported as 0.586 ± 0.014. Work on LYWDPSWITRQL [SNF8 C-terminal 12 aa] yielded a protein stability index of 0.621 ± 0.043. With MDPMSPLNKDVS [YMR196W C-terminal 12 aa] the protein stability index was 0.73 ± 0.05. MFTSDKKTEQTT [URC2 C-terminal 12 aa] was tested, and the protein stability index was 0.695 ± 0.011. Sequence MGSSRRTSLDFF [YBR071W C-terminal 12 aa] has a protein stability index of 0.693 ± 0.025. MIDELDYNINFA [UGA3 C-terminal 12 aa] was tested, and the protein stability index was 0.791 ± 0.076. MILKVSLECAVS [YDL009C C-terminal 12 aa] gave a protein stability index of 0.481 ± 0.016. In the case of MKKPRKSKKAAN [KRE33 C-terminal 12 aa], the protein stability index is reported as 0.714 ± 0.039. In the case of MKTRLERERGLV [PTC4 C-terminal 12 aa], the protein stability index is reported as 0.638 ± 0.019. In the case of MMAVDTDVDMDA [YPL071C C-terminal 12 aa], the protein stability index is reported as 0.673 ± 0.014. MMTRENMDMGER [RRP3 C-terminal 12 aa] gave a protein stability index of 0.649 ± 0.027. MNAAENEVKKEK [SUR2 C-terminal 12 aa] showed a protein stability index of 0.669 ± 0.027. Work on MNGIPREAFVQF [MEX67 C-terminal 12 aa] yielded a protein stability index of 0.701 ± 0.022. Work on MSNSNSVCCTLM [STE18 C-terminal 12 aa] yielded a protein stability index of 0.7027 ± 0.0034. With MSSTDWVTKPTY [AFG1 C-terminal 12 aa] the protein stability index was 0.678 ± 0.017. In the case of MTKISILKPFLH [CDC6 C-terminal 12 aa], the protein stability index is reported as 0.6156 ± 0.0052. In the case of MYSSKDNPASPK [TAF1 C-terminal 12 aa], the protein stability index is reported as 0.674 ± 0.017. NAEKAAGQKKED [YLL053C C-terminal 12 aa] was tested, and the protein stability index was 0.658 ± 0.018. NAIEEELAKMKL [THR4 C-terminal 12 aa] showed a protein stability index of 0.692 ± 0.035. Sequence NDTIKLNQSIYS [ASK10 C-terminal 12 aa] has a protein stability index of 0.7048 ± 0.0015. NEALVKTTKQKL [LPX1 C-terminal 12 aa] gave a protein stability index of 0.704 ± 0.018. NEEMAEISNPFR [FEN2 C-terminal 12 aa] was tested, and the protein stability index was 0.711 ± 0.026. For NEEMIRKLKAAK [JID1 C-terminal 12 aa], the protein stability index was 0.662 ± 0.021. NEPTNSDIVELD [UBA2 C-terminal 12 aa] was tested, and the protein stability index was 0.676 ± 0.019. Work on NFKNSSAKSKRS [PKH2 C-terminal 12 aa] yielded a protein stability index of 0.695 ± 0.0083. Sequence NFLNLLSPLPSV [TOM7 C-terminal 12 aa] has a protein stability index of 0.6951 ± 0.0031. Work on “NGTAKSAQSTTV [YAR019W-A C-terminal 12 aa]” yielded a protein stability index of 0.729 ± 0.016. Sequence NGWHELALPQSR [SWM1 C-terminal 12 aa] has a protein stability index of 0.705 ± 0.021. In the case of NIATIASERSRP [YPL102C C-terminal 12 aa], the protein stability index is reported as 0.683 ± 0.007. Work on NIIGLLSNDEEH [CBP2 C-terminal 12 aa] yielded a protein stability index of 0.6869 ± 0.0018. NKDTMQLFRAYL [CIN2 C-terminal 12 aa] gave a protein stability index of 0.834 ± 0.04. NKPKGPLRKRRT [TWF1 C-terminal 12 aa] showed a protein stability index of 0.672 ± 0.011. Sequence NKREFIDSLRPH [AIM20 C-terminal 12 aa] has a protein stability index of 0.6774 ± 0.0032. With NLDGQIHYLQRL [GAL7 C-terminal 12 aa] the protein stability index was 0.761 ± 0.091. For NMVNFESEKVNR [YVH1 C-terminal 12 aa], the protein stability index was 0.662 ± 0.012. NNDILQNKKLHQ [KIP1 C-terminal 12 aa] showed a protein stability index of 0.712 ± 0.053. In the case of NNLHLPGNTGFF [PDC2 C-terminal 12 aa], the protein stability index is reported as 0.712 ± 0.043. In the case of NPEATTKPKPRL [PTC5 C-terminal 12 aa], the protein stability index is reported as 0.81 ± 0.049. Sequence NPNSLPLQPIAN [MSC2 C-terminal 12 aa] has a protein stability index of 0.691 ± 0.015. In the case of NRVPKWMKLSKK [UBX4 C-terminal 12 aa], the protein stability index is reported as 0.679 ± 0.027. NRVVLVDHNSSS [IRS4 C-terminal 12 aa] showed a protein stability index of 0.727 ± 0.069. Sequence NSDTIARIATVM [DAS1 C-terminal 12 aa] has a protein stability index of 0.595 ± 0.0036. For NSIISLEALDAI [SMX2 C-terminal 12 aa], the protein stability index was 0.708 ± 0.022. In the case of NSNELEYAPTAN [LIA1 C-terminal 12 aa], the protein stability index is reported as 0.7 ± 0.11. NTESSCGFFQWV [APN2 C-terminal 12 aa] was tested, and the protein stability index was 0.737 ± 0.02. NTFRKIKGDKKN [MDJ1 C-terminal 12 aa] was tested, and the protein stability index was 0.758 ± 0.0081. For NTFVLNMSRFII [YDL068W C-terminal 12 aa], the protein stability index was 0.365 ± 0.079. “NTHDLHLRPGTY [YBL005W-A C-terminal 12 aa]” was tested, and the protein stability index was 0.708 ± 0.013. NTTHYNASLLRQ [PHO5 C-terminal 12 aa] showed a protein stability index of 0.673 ± 0.017. In the case of NTVELLNIPLTS [YLR345W C-terminal 12 aa], the protein stability index is reported as 0.649 ± 0.0043. With PAAIKQAIASNV [TRX2 C-terminal 12 aa] the protein stability index was 0.657 ± 0.0098. Sequence PAAKKVVELTQN [LSC2 C-terminal 12 aa] has a protein stability index of 0.58 ± 0.019. Work on PDCTVCSNSNSN [UBA3 C-terminal 12 aa] yielded a protein stability index of 0.677 ± 0.047. For PEGEAPEAFSMK [SEC14 C-terminal 12 aa], the protein stability index was 0.684 ± 0.036. For PEGGDGPKYTLT [CIR2 C-terminal 12 aa], the protein stability index was 0.721 ± 0.016. PEKWSASLKKFK [THI6 C-terminal 12 aa] was tested, and the protein stability index was 0.6854 ± 0.0031. In the case of PEMDKEKKKFYL [RPF1 C-terminal 12 aa], the protein stability index is reported as 0.708 ± 0.06. With PEVIDTRKDNSN [COX11 C-terminal 12 aa] the protein stability index was 0.696 ± 0.022. With PFGKKKTGLFSL [PRM10 C-terminal 12 aa] the protein stability index was 0.717 ± 0.03. In the case of PGDTLIEVIDLT [WSS1 C-terminal 12 aa], the protein stability index is reported as 0.7105 ± 0.00019. Sequence “PGLRRQHTRNFL [YMR294W-A C-terminal 12 aa]” has a protein stability index of 0.737 ± 0.042. Sequence PHVKLFETTSGL [IRC5 C-terminal 12 aa] has a protein stability index of 0.712 ± 0.014. In the case of PKGDIEASIAEE [MPH3 C-terminal 12 aa], the protein stability index is reported as 0.677 ± 0.016. With PKWCSTMCSTAT [YDR445C C-terminal 12 aa] the protein stability index was 0.743 ± 0.049. “PLCYWHYSADTY [YIL105W-A C-terminal 12 aa]” showed a protein stability index of 0.808 ± 0.039. For PLITPSGFRSSL [YNR025C C-terminal 12 aa], the protein stability index was 0.715 ± 0.025. PNLSRANFTRNK [RSA1 C-terminal 12 aa] showed a protein stability index of 0.699 ± 0.014. With PPFDFRLLFLLV [YGL165C C-terminal 12 aa] the protein stability index was 0.269 ± 0.0091. Work on PTVTRKTPDYFL [PPH22 C-terminal 12 aa] yielded a protein stability index of 0.718 ± 0.089. With QCNFSYLESNYF [CTS1 C-terminal 12 aa] the protein stability index was 0.749 ± 0.06. QFDSENVILSVI [TRS120 C-terminal 12 aa] showed a protein stability index of 0.687 ± 0.024. QHDEKPFYKRMF [HXT8 C-terminal 12 aa] showed a protein stability index of 0.666 ± 0.045. QHLKTHKKHGDF [MSN4 C-terminal 12 aa] was tested, and the protein stability index was 0.6983 ± 0.001. Sequence QIILQKEGVLDK [KCC4 C-terminal 12 aa] has a protein stability index of 0.672 ± 0.0083.
